Data as given in article PMC8826447 (2022).

Target: ASF1 (Homo sapiens, UniProt Q9Y294)
Sequence (Q9Y294 whole entry): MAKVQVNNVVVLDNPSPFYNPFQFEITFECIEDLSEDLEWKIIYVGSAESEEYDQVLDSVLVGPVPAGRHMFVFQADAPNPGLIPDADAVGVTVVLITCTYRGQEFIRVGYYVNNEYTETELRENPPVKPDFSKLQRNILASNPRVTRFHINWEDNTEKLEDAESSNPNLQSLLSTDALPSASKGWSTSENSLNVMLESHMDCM

B1: TLK2 (protein)
chain: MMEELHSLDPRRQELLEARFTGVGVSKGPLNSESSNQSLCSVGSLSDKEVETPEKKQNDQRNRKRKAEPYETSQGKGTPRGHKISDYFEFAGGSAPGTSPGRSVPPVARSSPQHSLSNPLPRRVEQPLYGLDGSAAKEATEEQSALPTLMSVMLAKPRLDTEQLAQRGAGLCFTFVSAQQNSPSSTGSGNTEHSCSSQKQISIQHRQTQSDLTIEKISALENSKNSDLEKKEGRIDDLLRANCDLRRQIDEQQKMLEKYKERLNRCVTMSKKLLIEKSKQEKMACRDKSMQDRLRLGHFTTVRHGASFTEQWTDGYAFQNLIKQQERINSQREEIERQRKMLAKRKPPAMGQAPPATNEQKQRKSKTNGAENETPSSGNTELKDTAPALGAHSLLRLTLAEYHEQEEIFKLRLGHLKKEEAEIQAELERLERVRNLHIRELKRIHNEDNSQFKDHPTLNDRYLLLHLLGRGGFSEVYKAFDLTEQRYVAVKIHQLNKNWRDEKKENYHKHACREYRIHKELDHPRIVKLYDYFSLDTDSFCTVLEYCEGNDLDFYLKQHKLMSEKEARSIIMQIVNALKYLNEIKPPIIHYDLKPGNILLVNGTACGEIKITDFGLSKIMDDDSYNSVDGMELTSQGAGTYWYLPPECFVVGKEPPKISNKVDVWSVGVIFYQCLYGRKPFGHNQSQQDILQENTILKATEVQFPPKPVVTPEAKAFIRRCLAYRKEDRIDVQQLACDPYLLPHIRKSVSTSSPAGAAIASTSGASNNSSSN
Kd: ~2000 nM
